# Patent US20220332800A1
# Legend:
# [1] = target: ZIKV-VLP (Native Antigen Inc.) (Zika virus); assay: BLI binning on ZIKV-VLP; 1st mAb: 11-3
# [2] = target: ZIKV-VLP (Native Antigen Inc.) (Zika virus); assay: BLI binning on ZIKV-VLP; 1st mAb: Ab1
# [3] = target: ZIKV-VLP (Native Antigen Inc.) (Zika virus); assay: BLI binning on ZIKV-VLP; 1st mAb: 242-3
# [4] = target: ZIKV-VLP (Native Antigen Inc.) (Zika virus); assay: indirect ELISA, purified antibody serially diluted from 10 µg/ml
# [5] = target: purified inactivated Zika virus (PIZV) (Zika virus); assay: as above
# [6] = target: ZIKV-VLP (Native Antigen Inc.) (Zika virus); assay: BLI binning on ZIKV-VLP; 1st mAb: Ab2
# [7] = target: ZIKV-VLP (Native Antigen Inc.) (Zika virus); assay: BLI binning on ZIKV-VLP; 1st mAb (row): 270-12
# [8] = target: ZIKV-VLP (Native Antigen Inc.) (Zika virus); assay: BLI binning on ZIKV-VLP; 1st mAb: 181-4
# [9] = target: ZIKV-VLP (Native Antigen Inc.) (Zika virus); assay: BLI binning on ZIKV-VLP; 1st mAb (row): C10
# [10] = target: ZIKV-VLP (Native Antigen Inc.) (Zika virus); assay: BLI binning on ZIKV-VLP; 1st mAb: 78-2
# [11] = target: ZIKV-VLP (Native Antigen Inc.) (Zika virus); assay: BLI binning on ZIKV-VLP; 1st mAb: 306-2
# [12] = target: ZIKV-VLP (Native Antigen Inc.) (Zika virus); assay: BLI binning on ZIKV-VLP; 1st mAb (row): 289-3
# [13] = target: ZIKV-VLP (Native Antigen Inc.) (Zika virus); assay: BLI binning on ZIKV-VLP; 1st mAb: 4G2
# [14] = target: ZIKV-VLP (Native Antigen Inc.) (Zika virus); assay: BLI binning on ZIKV-VLP; 1st mAb: 102-1
# [15] = target: ZIKV-VLP (Native Antigen Inc.) (Zika virus); assay: BLI binning on ZIKV-VLP; 1st mAb (row): 102-1
# [16] = target: ZIKV-VLP (Native Antigen Inc.) (Zika virus); assay: BLI binning on ZIKV-VLP; 1st mAb: 329-2
# [17] = target: Zika PRVABC59 live virus (Zika virus); assay: cell-based or functional assay
# [18] = target: ZIKV-VLP (Native Antigen Inc.) (Zika virus); assay: BLI binning on ZIKV-VLP; 1st mAb: C10
# [19] = target: ZIKV-VLP (Native Antigen Inc.) (Zika virus); assay: BLI binning on ZIKV-VLP; 1st mAb (row): 242-3
# [20] = target: ZIKV-VLP (Native Antigen Inc.) (Zika virus); assay: BLI binning on ZIKV-VLP; 1st mAb (row): 306-2
# [21] = target: ZIKV-VLP (Native Antigen Inc.) (Zika virus); assay: BLI binning on ZIKV-VLP; 1st mAb: 289-3
# [22] = target: ZIKV-VLP (Native Antigen Inc.) (Zika virus); assay: BLI binning on ZIKV-VLP; 1st mAb: 260-2
# [23] = target: ZIKV-VLP (Native Antigen Inc.) (Zika virus); assay: BLI binning on ZIKV-VLP; 1st mAb: 270-12
Substance,response of 2nd mAb [1],response of 2nd mAb [2],response of 2nd mAb [3],EC50 (half-maximal binding concentration) [4] [µg/mL],response of 2nd mAb [6],response of 2nd mAb [8],response of 2nd mAb [10],response of 2nd mAb [11],response of 2nd mAb [13],response of 2nd mAb [14],response of 2nd mAb [16],response of 2nd mAb [18],response of 2nd mAb [21],response of 2nd mAb [22],response of 2nd mAb [23],also measured
C10 (commercially-available anti-dengue antibody),0.63,0.66,0.59,0.162,0.05,0.55,0.56,0.62,0.24,0.68,0.57,0.17,0.63,0.61,0.58,EC50 (half-maximal binding concentration) [5]: 0.0268 µg/mL; response of 2nd mAb [7]: -0.0081; response of 2nd mAb [9]: -0.0123; response of 2nd mAb [12]: -0.0388; response of 2nd mAb [15]: -0.0138; MNT IC50 (ng/mL) of Purified antibody [17]: 306 ng/mL; response of 2nd mAb [19]: -0.0078; response of 2nd mAb [20]: 0.0209
4G2 (commercially-available anti-dengue antibody),0.52,0.52,0.52,0.33,-0.08,0.5,0.17,0.43,0.62,0.46,0.51,0.54,0.51,0.54,0.43,EC50 [5]: 0.0182 µg/mL
